This is an account of results in publication PMC7865074.

The target of assay [1] is full-length (FL) NS5 protein (wt PBM) of West Nile virus (West Nile virus). Nature of the assay: split reporter (BiFC, NanoBiT); N2H split-NanoLuc in HEK-293T cells; full-length NS5 with 257 single PDZ domains; read-out NLR with NS5 minus NLR with NS5ΔPBM, three experiments; hits > 0.25.
Assay [2] has the same target. The assay is described as follows: split reporter (BiFC, NanoBiT); N2H split-NanoLuc in HEK-293T cells; full-length NS5 with 91 full-length human PDZ proteins (ORFs); read-out NLR; hits NLR > 1.35.
Assay [3] concerns the target biotinylated WNV NS5 PBM peptide (West Nile virus). The assay is described as follows: holdup assay (automated high-throughput chromatography); biotinylated NS5 PBM peptide as bait against 259 human PDZ domains expressed in E. coli; read-out binding intensity (BI), mean of replicates; BI threshold 0.2 for a significant interaction.
The target in assay [4] is full-length (FL) NS5 protein (wt PBM) of West Nile virus (West Nile virus). The assay is described as follows: split reporter (BiFC, NanoBiT); N2H split-NanoLuc in HEK-293T cells; full-length NS5 with 91 full-length human PDZ proteins (ORFs); read-out NLR; hits NLR > 1.35. This is another data set of the same source.

Where two headings read alike, the source gives them in different places.

Sequence of Connector enhancer of kinase suppressor of ras 3, full-length protein (ORF, N2H construct) (Q6P9H4 whole entry): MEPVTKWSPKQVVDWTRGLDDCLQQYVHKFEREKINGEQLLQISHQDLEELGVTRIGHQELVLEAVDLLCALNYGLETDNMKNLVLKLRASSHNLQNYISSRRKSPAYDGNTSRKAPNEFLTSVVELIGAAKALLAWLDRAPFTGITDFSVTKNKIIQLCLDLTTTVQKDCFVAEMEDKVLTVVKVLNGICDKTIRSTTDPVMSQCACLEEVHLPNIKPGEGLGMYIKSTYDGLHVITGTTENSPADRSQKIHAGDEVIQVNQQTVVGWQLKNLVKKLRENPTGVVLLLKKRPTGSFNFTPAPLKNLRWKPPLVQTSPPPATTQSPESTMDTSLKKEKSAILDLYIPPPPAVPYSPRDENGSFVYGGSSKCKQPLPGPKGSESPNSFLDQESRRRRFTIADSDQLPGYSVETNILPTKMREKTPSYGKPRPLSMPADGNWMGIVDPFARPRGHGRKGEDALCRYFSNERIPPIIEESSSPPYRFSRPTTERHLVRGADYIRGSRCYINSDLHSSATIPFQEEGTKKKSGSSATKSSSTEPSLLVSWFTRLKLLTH
Sequence of Protein scribble homolog, PDZ domain 1 (N2H construct) (Q14160 728-815): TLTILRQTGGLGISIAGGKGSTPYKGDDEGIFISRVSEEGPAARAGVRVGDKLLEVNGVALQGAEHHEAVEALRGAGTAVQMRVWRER
Sequence of Protein scribble homolog, PDZ domain 4 (N2H construct) (Q14160 1100-1194): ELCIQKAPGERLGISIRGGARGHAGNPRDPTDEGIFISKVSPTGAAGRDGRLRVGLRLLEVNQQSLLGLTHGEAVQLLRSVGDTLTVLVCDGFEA
Sequence of Connector enhancer of kinase suppressor of ras 3, PDZ domain (N2H construct) (Q6P9H4 211-293): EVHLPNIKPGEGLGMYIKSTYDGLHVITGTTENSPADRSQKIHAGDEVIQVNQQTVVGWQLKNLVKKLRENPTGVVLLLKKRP
Sequence of FERM and PDZ domain-containing protein 4, PDZ domain (N2H construct) (Q14CM0 78-155): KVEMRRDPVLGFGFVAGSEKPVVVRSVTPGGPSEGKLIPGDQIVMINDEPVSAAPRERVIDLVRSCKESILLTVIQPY
Sequence of Microtubule-associated serine/threonine-protein kinase 2, PDZ domain (N2H construct) (Q6P0Q8 1104-1192): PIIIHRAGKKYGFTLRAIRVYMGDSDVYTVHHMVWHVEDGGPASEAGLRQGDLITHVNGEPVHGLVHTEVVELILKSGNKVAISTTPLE
Sequence of Partitioning defective 3 homolog, PDZ domain 1 (N2H construct) (Q8TEW0 271-359): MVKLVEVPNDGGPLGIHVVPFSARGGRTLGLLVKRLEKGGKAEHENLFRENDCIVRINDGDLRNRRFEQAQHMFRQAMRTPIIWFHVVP
Sequence of Microtubule-associated serine/threonine-protein kinase 1, PDZ domain (N2H construct) (Q9Y2H9 967-1055): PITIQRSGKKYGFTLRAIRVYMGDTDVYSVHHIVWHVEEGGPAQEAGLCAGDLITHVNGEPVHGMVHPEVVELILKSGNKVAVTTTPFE
Sequence of Serine protease HTRA1, PDZ domain (N2H construct) (Q92743 365-467): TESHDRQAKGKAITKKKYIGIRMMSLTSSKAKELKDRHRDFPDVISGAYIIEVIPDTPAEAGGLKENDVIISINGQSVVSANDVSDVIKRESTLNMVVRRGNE

As to “Connector enhancer of kinase suppressor of ras 3, PDZ domain (N2H construct) (from UniProt Q6P9H4 211-293) (domain or fragment)”, in assay [1], the NLR(NS5) - NLR(NS5ΔPBM) is 6.27.

“Connector enhancer of kinase suppressor of ras 3, full-length protein (ORF, N2H construct) (from UniProt Q6P9H4 1-555) (natural protein)”: the NLR in assay [2] is 1.91.

Turning to “FERM and PDZ domain-containing protein 4, PDZ domain (N2H construct) (from UniProt Q14CM0 78-155) (domain or fragment)”, the NLR(NS5) - NLR(NS5ΔPBM) in assay [1] was under 0.25.

As for “Golgi reassembly-stacking protein 2, PDZ domain (N2H construct) (domain or fragment)”, in assay [1], the NLR(NS5) - NLR(NS5ΔPBM) worked out at 1.32.

Take “Golgi reassembly-stacking protein 2, PDZ domain (holdup construct) (domain or fragment)”: the BI (holdup binding intensity) in assay [3] is under 0.15.

With “Microtubule-associated serine/threonine-protein kinase 1, PDZ domain (N2H construct) (from UniProt Q9Y2H9 967-1055) (domain or fragment)”, in assay [1], the NLR(NS5) - NLR(NS5ΔPBM) is under 0.25.

Consider “Microtubule-associated serine/threonine-protein kinase 2, PDZ domain (N2H construct) (from UniProt Q6P0Q8 1104-1192) (domain or fragment)”, for which the NLR(NS5) - NLR(NS5ΔPBM) in assay [1] was determined as 0.87.

In the case of “Partitioning defective 3 homolog, PDZ domain 1 (N2H construct) (from UniProt Q8TEW0 271-359) (domain or fragment)”, in assay [1], the NLR(NS5) - NLR(NS5ΔPBM) is 1.24.

As for “Protein scribble homolog, PDZ domain 1 (N2H construct) (from UniProt Q14160 728-815) (domain or fragment)”, the NLR(NS5) - NLR(NS5ΔPBM) in assay [1] was 0.76.

Take “Protein scribble homolog, PDZ domain 4 (N2H construct) (from UniProt Q14160 1100-1194) (domain or fragment)”: the NLR(NS5) - NLR(NS5ΔPBM) in assay [1] came to 0.56.

Consider “Rho GTPase-activating protein 21, full-length protein (ORF, N2H construct) (from UniProt Q5T5U3 1-1958) (natural protein)”, for which the NLR in assay [2] was 4.4; in assay [4], 4.41.

In the case of “SH3 and multiple ankyrin repeat domains protein 2, full-length protein (ORF, N2H construct) (from UniProt Q9UPX8 1-1849) (natural protein)”, the NLR in assay [2] is 4.38.

Take “Serine protease HTRA1, PDZ domain (N2H construct) (from UniProt Q92743 365-467) (domain or fragment)”: in assay [1], the NLR(NS5) - NLR(NS5ΔPBM) is under 0.25.
